Test results: publication PMC12352893, “Neuraminidase 1 secondary deficiency contributes to CNS pathology in neurological mucopolysaccharidoses via brain protein hypersialylation” (The Journal of Clinical Investigation, 2025)

Target: the molecule itself
Test: SEC; gel filtration of total protein extracts from brain tissue of WT mice; GLB1 and NEU1 enzymatic activities measured in the eluted fractions

B1: β-galactosidase (GLB1), mouse brain (enzyme, mouse (endogenous in brain tissue), UniProt P23780 30-647, looked up)
chain: QRTFKLDYSRDRFLKDGQPFRYISGSIHYFRIPRFYWEDRLLKMKMAGLNAIQMYVPWNFHEPQPGQYEFSGDRDVEHFIQLAHELGLLVILRPGPYICAEWDMGGLPAWLLEKQSIVLRSSDPDYLVAVDKWLAVLLPKMKPLLYQNGGPIITVQVENEYGSYFACDYDYLRFLVHRFRYHLGNDVILFTTDGASEKMLKCGTLQDLYATVDFGTGNNITQAFLVQRKFEPKGPLINSEFYTGWLDHWGKPHSTVKTKTLATSLYNLLARGANVNLYMFIGGTNFAYWNGANTPYEPQPTSYDYDAPLSEAGDLTKKYFALREVIQMFKEVPEGPIPPSTPKFAYGKVALRKFKTVAEALGILCPNGPVKSLYPLTFTQVKQYFGYVLYRTTLPQDCSNPKPIFSSPFNGVRDRAYVSVDGVPQGILDRNLMTALNIRGKAGATLDILVENMGRVNYGRFINDFKGLISNMTINSTVLTNWTVFPLNTEAMVRNHLWGREASDEGHLDGRSTSNSSDLILPTFYVGNFSIPSGIPDLPQDTFIQFPGWSKGQVWINGFNLGRYWPTMGPQKTLFVPRNILTTSAPNNITVLELEFAPCSEGTPELCTVEFVDTPVIS
notes: β-galactosidase (GLB1), mouse, endogenous in brain extracts; detected by its enzymatic activity in gel-filtration fractions; Eluted both in the ~1,200 kDa LMC peak and as a 240 kDa tetramer; also called lysosomal β-galactosidase; source: endogenous, total protein extracts from mouse brain tissue
stoichiometry N: 4
